Results published in PMC3679108, “A Novel Glucagon-Related Peptide (GCRP) and Its Receptor GCRPR Account for Coevolution of Their Family Members in Vertebrates” (PLoS ONE, 2013).
Like-named read-outs stand apart in the source and are kept apart here. Ends that are not written are not given here.

B1: Medaka GCG1 (peptide)
peptide: HSEGTFSNDYSKYLEDRKAQDFVRWLMNN
B2: Chicken GIP (peptide)
peptide: YSEATLASDYSRTMDNMLKKNFVEWLLARREKKSDNVIEPY
B3: Xenopus GCRP (peptide)
peptide: HSEGTFSSDLTRYLDKMKAKDFVQWLMN
B4: Human GIP (peptide)
peptide: YAEGTFISDYSIAMDKIHQQDFVNWLLAQKGKKNDWKHNITQ
B5: Medaka GCRP (peptide)
peptide: HTDGMFTSDLTNYLDKMKAKNFVEWLAAIKQQE
B6: Chicken GLP1 (peptide)
peptide: HAEGTYTSDITSYLEGQAAKEFIAWLVNGR
modifications: also: unexplained 'a' after last residue
B7: Chicken GCRP (peptide)
peptide: HSEGTFTSDFTRYLDKMKAKDFVHWLINT
B8: Chicken GLP2 (peptide)
peptide: HADGTFTSDINKILDDMAAKEFLKWLINTKVTQ

What was measured:
[1] = molecular target: medaka GCRP receptor (medaka)
[2] = molecular target: chicken GCRP receptor (chicken)
[3] = molecular target: Xenopus GCRP receptor (Xenopus)
[4] = molecular target: Xenopus GCRP receptor (Xenopus); experiment: radioligand binding; competitive displacement on HEK293T cells transfected with GCRPR (300 ng DNA/well, 12-well plates); 100,000 cpm 125I-chGCRP without or with various concentrations of cold peptides, 1 h, binding buffer (serum-free DMEM with 0.1% BSA, pH 7.4); IC50 by nonlinear regression
human GCGR (human) = human GCGR (human) (UniProt P47871)
Sequence of human GCGR (human) (P47871 26-477): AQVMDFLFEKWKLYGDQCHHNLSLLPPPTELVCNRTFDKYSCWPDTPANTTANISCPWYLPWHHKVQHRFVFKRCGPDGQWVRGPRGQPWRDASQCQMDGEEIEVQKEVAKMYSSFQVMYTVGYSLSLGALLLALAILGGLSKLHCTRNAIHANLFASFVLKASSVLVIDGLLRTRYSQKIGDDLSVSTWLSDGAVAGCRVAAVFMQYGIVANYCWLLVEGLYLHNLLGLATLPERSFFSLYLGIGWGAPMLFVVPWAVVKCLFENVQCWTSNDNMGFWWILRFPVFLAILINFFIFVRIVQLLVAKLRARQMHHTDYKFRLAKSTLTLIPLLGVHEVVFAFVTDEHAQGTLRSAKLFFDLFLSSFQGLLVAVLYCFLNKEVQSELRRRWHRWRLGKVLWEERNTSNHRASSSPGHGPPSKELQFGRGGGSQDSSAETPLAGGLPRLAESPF

human GIPR (human) = human GIPR (human) (UniProt P48546)
Sequence of human GIPR (human) (P48546 22-466): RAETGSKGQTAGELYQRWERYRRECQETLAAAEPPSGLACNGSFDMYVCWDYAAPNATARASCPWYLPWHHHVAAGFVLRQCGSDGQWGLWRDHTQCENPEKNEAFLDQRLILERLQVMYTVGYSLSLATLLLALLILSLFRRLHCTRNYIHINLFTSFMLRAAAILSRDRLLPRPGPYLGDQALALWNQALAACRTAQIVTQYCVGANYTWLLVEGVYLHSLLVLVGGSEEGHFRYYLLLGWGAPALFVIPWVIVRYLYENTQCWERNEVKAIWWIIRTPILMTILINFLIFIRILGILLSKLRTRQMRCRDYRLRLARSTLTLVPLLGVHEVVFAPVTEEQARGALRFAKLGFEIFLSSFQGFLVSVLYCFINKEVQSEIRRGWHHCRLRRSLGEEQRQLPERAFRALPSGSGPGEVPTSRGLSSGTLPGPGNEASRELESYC

human GLP1R (human) = human GLP1R (human) (UniProt P43220)
Sequence of human GLP1R (human) (P43220 24-463): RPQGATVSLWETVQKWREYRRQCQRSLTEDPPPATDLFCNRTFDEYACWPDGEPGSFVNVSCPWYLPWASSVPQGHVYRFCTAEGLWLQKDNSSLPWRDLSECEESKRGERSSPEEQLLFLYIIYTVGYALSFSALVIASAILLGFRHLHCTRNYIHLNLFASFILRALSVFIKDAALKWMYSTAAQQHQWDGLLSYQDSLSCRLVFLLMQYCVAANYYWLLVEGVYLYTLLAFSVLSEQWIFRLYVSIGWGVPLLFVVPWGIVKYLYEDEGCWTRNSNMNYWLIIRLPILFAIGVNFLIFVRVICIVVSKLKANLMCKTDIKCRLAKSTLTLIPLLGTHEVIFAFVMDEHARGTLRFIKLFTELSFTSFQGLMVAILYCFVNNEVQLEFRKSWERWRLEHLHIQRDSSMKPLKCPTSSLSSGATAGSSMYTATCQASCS

[5] = molecular target: Xenopus GCRP receptor (Xenopus); remark: listed apart in the source
[6] = molecular target: Xenopus GCRP receptor (Xenopus); experiment: radioligand binding; competitive displacement on HEK293T cells transfected with GCRPR (300 ng DNA/well, 12-well plates); 100,000 cpm 125I-chGCRP without or with various concentrations of cold peptides, 1 h, binding buffer (serum-free DMEM with 0.1% BSA, pH 7.4); IC50 by nonlinear regression; remark: listed apart in the source
[7] = molecular target: medaka GCRP receptor (medaka); experiment: as above
[8] = molecular target: medaka GCRP receptor (medaka); remark: listed apart in the source
[9] = molecular target: medaka GCRP receptor (medaka); remark: listed apart in the source
[10] = molecular target: medaka GCRP receptor (medaka); experiment: radioligand binding; competitive displacement on HEK293T cells transfected with GCRPR (300 ng DNA/well, 12-well plates); 100,000 cpm 125I-chGCRP without or with various concentrations of cold peptides, 1 h, binding buffer (serum-free DMEM with 0.1% BSA, pH 7.4); IC50 by nonlinear regression; remark: listed apart in the source
[11] = molecular target: chicken GCRP receptor (chicken); remark: listed apart in the source
[12] = molecular target: chimeric chGCRPR/chGLP1R (chicken)
[13] = molecular target: chimeric chGCRPR/huGLP1R (chicken | human) (UniProt P43220)
Sequence of chimeric chGCRPR/huGLP1R (chicken | human) (P43220 whole entry, change not shown): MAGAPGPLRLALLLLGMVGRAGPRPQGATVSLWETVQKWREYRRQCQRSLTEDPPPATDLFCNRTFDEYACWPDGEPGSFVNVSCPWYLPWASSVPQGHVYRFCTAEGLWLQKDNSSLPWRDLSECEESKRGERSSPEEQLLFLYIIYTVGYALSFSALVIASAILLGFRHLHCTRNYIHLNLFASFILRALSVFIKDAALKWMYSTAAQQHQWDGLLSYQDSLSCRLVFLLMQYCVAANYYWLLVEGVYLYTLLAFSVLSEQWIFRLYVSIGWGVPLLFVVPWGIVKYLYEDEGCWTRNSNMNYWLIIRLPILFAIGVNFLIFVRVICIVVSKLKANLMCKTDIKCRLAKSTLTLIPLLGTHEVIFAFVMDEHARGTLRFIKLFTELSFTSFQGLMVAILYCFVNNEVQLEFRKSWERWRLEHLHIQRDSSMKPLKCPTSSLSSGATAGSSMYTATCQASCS

[14] = molecular target: chicken GCRP receptor (chicken); experiment: radioligand binding; competitive displacement on HEK293T cells transfected with GCRPR (300 ng DNA/well, 12-well plates); 100,000 cpm 125I-chGCRP without or with various concentrations of cold peptides, 1 h, binding buffer (serum-free DMEM with 0.1% BSA, pH 7.4); IC50 by nonlinear regression
[15] = molecular target: chicken GCRP receptor (chicken); experiment: as above; remark: listed apart in the source
human GLP2R (human) = human GLP2R (human) (UniProt O95838)
Sequence of human GLP2R (human) (O95838 whole entry): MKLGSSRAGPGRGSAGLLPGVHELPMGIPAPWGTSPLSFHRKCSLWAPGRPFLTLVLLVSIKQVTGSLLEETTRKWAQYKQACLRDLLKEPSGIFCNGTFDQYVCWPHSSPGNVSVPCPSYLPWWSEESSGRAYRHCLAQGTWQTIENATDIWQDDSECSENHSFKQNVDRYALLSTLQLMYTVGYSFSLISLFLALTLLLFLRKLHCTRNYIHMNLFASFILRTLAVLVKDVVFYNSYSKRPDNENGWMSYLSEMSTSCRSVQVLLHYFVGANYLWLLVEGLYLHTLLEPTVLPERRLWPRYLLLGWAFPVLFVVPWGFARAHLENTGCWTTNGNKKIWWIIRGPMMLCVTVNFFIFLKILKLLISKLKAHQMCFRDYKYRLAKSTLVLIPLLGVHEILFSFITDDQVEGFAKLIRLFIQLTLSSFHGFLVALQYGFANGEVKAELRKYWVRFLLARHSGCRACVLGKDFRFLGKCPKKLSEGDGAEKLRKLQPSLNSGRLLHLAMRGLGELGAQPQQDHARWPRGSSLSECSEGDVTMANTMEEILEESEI

[16] = molecular target: chicken GCRP receptor (chicken); remark: listed apart in the source

| Binder | CRE-luc reporter, HEK293T cells with the receptor: EC50 [1] | CRE-luc reporter, HEK293T cells with the receptor: Emax (fold induction) [1] | CRE-luc reporter, HEK293T cells with the receptor: EC50 [2] | CRE-luc reporter, HEK293T cells with the receptor: Emax (fold induction) [2] | CRE-luc reporter, HEK293T cells with the receptor: EC50 [3] | CRE-luc reporter, HEK293T cells with the receptor: Emax (fold induction) [3] | CRE-luc reporter, HEK293T cells with the receptor: EC50 (human GCGR (human)) | CRE-luc reporter, HEK293T cells with the receptor: Emax (fold induction) (human GCGR (human)) | CRE-luc reporter, HEK293T cells with the receptor: Emax (fold induction) (human GIPR (human)) | CRE-luc reporter, HEK293T cells with the receptor: EC50 (human GLP1R (human)) | CRE-luc reporter, HEK293T cells with the receptor: Emax (fold induction) (human GLP1R (human)) | further results |
| --- | --- | --- | --- | --- | --- | --- | --- | --- | --- | --- | --- | --- |
| B1 | 108 nM | 4.26 |  |  |  |  |  |  |  |  |  |  |
| B2 |  |  | 69.2 nM | 6.22 | 274 nM | 32.4 |  |  |  |  |  |  |
| B3 | 30.6 nM | 8.1 | 1.18 nM | 6.25 | 2.24 nM | 30.4 | 182 nM | 2.09 | 1.95 | > 1000 nM | 24.1 | IC50 [4]: 63 nM; cAMP level by Glosensor-22F luminescence in HEK293T cells with the receptor: EC50 [5]: 46 nM; IC50 [6]: 65.5 nM |
| B4 |  |  |  |  |  |  |  |  | 5.21 |  |  |  |
| B5 | 6.84 nM | 7.9 | 68.2 nM | 6.93 | 94.6 nM | 32 | 175 nM | 2.27 | 2.11 | 156 nM | 20.9 | IC50 [7]: 320 nM; cAMP level by Glosensor-22F luminescence in HEK293T cells with the receptor: EC50 [8]: 1.15 nM; CRE-luc reporter, HEK293T cells with the receptor: EC50 [9]: 6.76 nM; IC50 [10]: 327 nM |
| B6 |  |  |  |  |  |  |  |  |  |  |  | CRE-luc reporter, HEK293T cells with the receptor: EC50 [11]: 18.3 nM; CRE-luc reporter, HEK293T cells with the receptor: Emax (fold induction) [11]: 5.8; CRE-luc reporter, HEK293T cells with the receptor: EC50 [12]: 1.52 nM; CRE-luc reporter, HEK293T cells with the receptor: Emax (fold induction) [12]: 12.6; CRE-luc reporter, HEK293T cells with the receptor: EC50 (chicken GLP1R (chicken)): 0.2 nM; CRE-luc reporter, HEK293T cells with the receptor: Emax (fold induction) (chicken GLP1R (chicken)): 28.2; CRE-luc reporter, HEK293T cells with the receptor: EC50 [13]: 2.29 nM; CRE-luc reporter, HEK293T cells with the receptor: Emax (fold induction) [13]: 91.9; IC50 [14]: > 1000 nM; IC50 [6]: > 1000 nM |
| B7 | 33.7 nM | 8.12 | 0.87 nM | 6 | 5.86 nM | 30.1 | 42.7 nM | 6.32 | 3.03 | 48.9 nM | 19.8 | IC50 [15]: 43.6 nM; CRE-luc reporter, HEK293T cells with the receptor: EC50 (human GLP2R (human)): 592 nM; CRE-luc reporter, HEK293T cells with the receptor: Emax (fold induction) (human GLP2R (human)): 6.32; cAMP level by Glosensor-22F luminescence in HEK293T cells with the receptor: EC50 [16]: 5.8 nM; CRE-luc reporter, HEK293T cells with the receptor: EC50 [11]: 0.32 nM; CRE-luc reporter, HEK293T cells with the receptor: Emax (fold induction) [11]: 5.56; CRE-luc reporter, HEK293T cells with the receptor: EC50 [12]: 8.57 nM; CRE-luc reporter, HEK293T cells with the receptor: Emax (fold induction) [12]: 7.3; CRE-luc reporter, HEK293T cells with the receptor: EC50 (chicken GLP1R (chicken)): 8.03 nM; CRE-luc reporter, HEK293T cells with the receptor: Emax (fold induction) (chicken GLP1R (chicken)): 19.2; CRE-luc reporter, HEK293T cells with the receptor: EC50 [13]: 9.44 nM; CRE-luc reporter, HEK293T cells with the receptor: Emax (fold induction) [13]: 62.9; IC50 [14]: 43.5 nM |
| B8 |  |  | 33.4 nM | 6.26 |  |  |  |  |  |  |  |  |
